Consider one molecule from patent US20050069869A1 (UNIVERSITY OF MASSACHUSETTS, published 2005).

A word on the IC50: it is the midpoint of a concentration-inhibition curve. Broadly, the EC50 is the concentration at which the effect is half-maximal.

Experiment [1] deals with SARS-CoV S protein of the virus (Urbani strain; virions and infected Vero cell extracts) (SARS-CoV, UniProt P59594 15-1190). Kind of experiment: cell-based or functional assay.
In experiment [2] the target is S(590), N-terminal 590 amino acids of the SARS-CoV S protein (SARS-CoV, UniProt P59594 15-590). Briefly: FACS; inhibition of myc-tagged S(590) binding to Vero E6 cells. A general note: A flow cytometer gives signals particle by particle.
Experiment [3] concerns the target S(1255), full length S protein with transmembrane and cytoplasmic domains, on transfected HEK 293 cells (SARS-CoV, UniProt P59594 15-1190). Kind of experiment: FACS on HEK 293 cells transfected with S(1255); given as ED50.
Experiment [4] has as its target T1, S(130), amino acids 1-130 of the SARS-CoV S protein (SARS-CoV, UniProt P59594 15-130).
T1 sequence: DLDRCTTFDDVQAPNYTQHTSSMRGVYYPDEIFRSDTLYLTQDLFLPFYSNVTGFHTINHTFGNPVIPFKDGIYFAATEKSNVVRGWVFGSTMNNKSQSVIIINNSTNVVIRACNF
Briefly: immunoprecipitation from culture supernatant, Western blot with anti-His6.

The target in experiment [5] is T2, S(150), amino acids 1-150 of the SARS-CoV S protein (SARS-CoV, UniProt P59594 15-150).
T2 sequence: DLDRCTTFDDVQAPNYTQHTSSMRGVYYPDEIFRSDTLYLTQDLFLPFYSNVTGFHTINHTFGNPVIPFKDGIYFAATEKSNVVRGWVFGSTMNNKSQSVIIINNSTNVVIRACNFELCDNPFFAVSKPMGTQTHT
Described as above.

The target in experiment [6] is T3, S(170), amino acids 1-170 of the SARS-CoV S protein (SARS-CoV, UniProt P59594 15-170).
T3 sequence: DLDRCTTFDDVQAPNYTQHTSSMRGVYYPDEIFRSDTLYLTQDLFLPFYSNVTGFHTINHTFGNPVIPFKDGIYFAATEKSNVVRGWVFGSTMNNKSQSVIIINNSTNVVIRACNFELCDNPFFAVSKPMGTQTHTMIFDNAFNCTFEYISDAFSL
The description is as above.

Experiment [7] addresses T4, S(269), amino acids 1-269 of the SARS-CoV S protein (SARS-CoV, UniProt P59594 15-269).
T4 sequence: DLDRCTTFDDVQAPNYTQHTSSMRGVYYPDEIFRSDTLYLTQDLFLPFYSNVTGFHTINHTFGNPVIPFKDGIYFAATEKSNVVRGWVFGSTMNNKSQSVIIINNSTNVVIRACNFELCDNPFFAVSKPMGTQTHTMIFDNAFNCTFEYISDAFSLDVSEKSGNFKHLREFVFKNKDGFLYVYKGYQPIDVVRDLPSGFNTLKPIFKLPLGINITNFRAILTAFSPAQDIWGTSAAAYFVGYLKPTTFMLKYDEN
The experiment is described as above.

Experiment [8] addresses S(470), amino acids 1-470 of the SARS-CoV S protein (SARS-CoV, UniProt P59594 15-470). The experiment is described as above.
Experiment [9] deals with S(490), amino acids 1-490 of the SARS-CoV S protein (SARS-CoV, UniProt P59594 15-490). The experiment is described as above.

B1: human monoclonal antibody 201.2 (antibody, V domains shown)
VH: EVQLVQSGGGLVHPGGSLRLSCAGSGFTFSSYDMHWVRQAPGKGLEWVSVVGTGDGTYYADSVKGRFTISRDNAKNSLYLQMNSLRAEDMAVYYCARDQWWGSDYWGQGTLVTVSS
VL: EIVLTQSPATLSLSPGERATLSCRASQSVSSYLAWYQQKPGQAPRLLIYDASNRATGIPARFSGSGSGTDFTLTISSLEPEDFAVYYCQQRSNWPLTFGGGTKVEIK
notes: also called 508-201; 7-508-201
In the case of B1, the “Viral Neut. in vitro (IC50, nM)” value in [1] is 0.7 nM. In experiment [2], this molecule yielded an IC50 of 2 nM. The same molecule registered an EC50 in [3] of 6 nM. In addition, the binding result in experiment [4], in experiment [5], in experiment [6], in [7], in experiment [8] and in experiment [9] was “no binding” each time.
